Data reported in US20100129373A1.

Tests used:
[1] = molecular target: recombinant human VEGF (293-VE, R&D systems, USA) (human) (UniProt P15692); assay: ELISA, control IgG 50 nM
[2] = molecular target: T1, recombinant mouse VEGF (493-MV, R&D systems, USA) (mouse) (UniProt Q00731); assay: ELISA, control IgG 50 nM
T1 sequence (looked up): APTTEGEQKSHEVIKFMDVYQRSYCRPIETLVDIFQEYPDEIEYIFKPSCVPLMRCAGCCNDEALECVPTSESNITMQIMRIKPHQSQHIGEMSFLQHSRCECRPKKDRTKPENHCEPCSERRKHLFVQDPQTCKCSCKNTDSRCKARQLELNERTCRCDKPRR

[3] = molecular target: recombinant mouse VEGF (493-MV, R&D systems, USA) (mouse) (UniProt Q00731); assay: ELISA, Ab 25 nM
[4] = molecular target: recombinant mouse VEGF (493-MV, R&D systems, USA) (mouse) (UniProt Q00731); assay: ELISA, Ab 50 nM
[5] = molecular target: recombinant mouse VEGF (493-MV, R&D systems, USA) (mouse) (UniProt Q00731); assay: ELISA, Ab 0.10 nM
[6] = molecular target: recombinant mouse VEGF (493-MV, R&D systems, USA) (mouse) (UniProt Q00731); assay: ELISA, Ab 0.20 nM
[7] = molecular target: recombinant mouse VEGF (493-MV, R&D systems, USA) (mouse) (UniProt Q00731); assay: ELISA, Ab 0.39 nM
[8] = molecular target: recombinant mouse VEGF (493-MV, R&D systems, USA) (mouse) (UniProt Q00731); assay: ELISA, Ab 0.78 nM
[9] = molecular target: recombinant mouse VEGF (493-MV, R&D systems, USA) (mouse) (UniProt Q00731); assay: ELISA, Ab 1.56 nM
[10] = molecular target: recombinant mouse VEGF (493-MV, R&D systems, USA) (mouse) (UniProt Q00731); assay: ELISA, Ab 12.5 nM
[11] = molecular target: recombinant mouse VEGF (493-MV, R&D systems, USA) (mouse) (UniProt Q00731); assay: ELISA, Ab 3.13 nM
[12] = molecular target: recombinant mouse VEGF (493-MV, R&D systems, USA) (mouse) (UniProt Q00731); assay: ELISA, Ab 6.25 nM
[13] = molecular target: recombinant mouse VEGF (493-MV, R&D systems, USA) (mouse) (UniProt Q00731); assay: ELISA, Ab 0.049 nM

Substance | OD490 [1] | OD490 [2] | OD490 [3] | OD490 [4] | OD490 [5] | OD490 [6] | OD490 [7] | OD490 [8] | OD490 [9] | OD490 [10] | OD490 [11] | OD490 [12] | OD490 [13]
normal human IgG (antibody) | 0.052 | 0.0467 |  |  |  |  |  |  |  |  |  |  | 
Avastin™ (bevacizumab, Genetech), humanized anti-VEGF monoclonal antibody |  |  | 0.107 | 0.695 | 0.147 | 0.0433 | 0.0569 | 0.0438 | 0.0455 | 0.104 | 0.0489 | 0.0424 | 0.0687
